Data taken from patent US20210275641A1 (SYNTHEKINE, published 2021).
Substitutions are numbered along the chain they refer to. In names and notes the source's numbering stands.

T1: human high affinity trimeric IL-2 receptor (CD25/CD122/CD132) (human, UniProt P01589 22-272; P14784 27-551; P31785 23-369)
T1 sequence 1: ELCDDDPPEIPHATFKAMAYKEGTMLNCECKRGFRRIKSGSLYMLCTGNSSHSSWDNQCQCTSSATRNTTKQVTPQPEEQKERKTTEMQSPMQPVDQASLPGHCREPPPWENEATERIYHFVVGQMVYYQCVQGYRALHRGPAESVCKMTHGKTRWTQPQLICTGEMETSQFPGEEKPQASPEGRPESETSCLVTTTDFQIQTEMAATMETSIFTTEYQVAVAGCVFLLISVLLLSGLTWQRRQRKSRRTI
T1 sequence 2: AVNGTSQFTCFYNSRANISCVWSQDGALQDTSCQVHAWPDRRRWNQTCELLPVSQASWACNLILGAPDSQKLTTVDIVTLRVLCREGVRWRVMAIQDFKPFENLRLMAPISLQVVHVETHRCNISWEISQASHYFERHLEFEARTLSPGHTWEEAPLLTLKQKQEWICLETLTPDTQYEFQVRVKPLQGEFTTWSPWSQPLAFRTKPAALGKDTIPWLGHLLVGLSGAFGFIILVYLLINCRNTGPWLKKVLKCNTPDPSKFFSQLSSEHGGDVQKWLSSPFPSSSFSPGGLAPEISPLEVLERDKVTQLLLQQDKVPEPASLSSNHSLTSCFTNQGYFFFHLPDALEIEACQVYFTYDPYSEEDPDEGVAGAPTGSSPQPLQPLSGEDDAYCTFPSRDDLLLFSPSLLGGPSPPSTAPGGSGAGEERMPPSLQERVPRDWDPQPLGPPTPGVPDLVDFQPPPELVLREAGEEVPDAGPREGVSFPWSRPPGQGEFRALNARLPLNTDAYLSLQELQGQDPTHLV
T1 sequence 3: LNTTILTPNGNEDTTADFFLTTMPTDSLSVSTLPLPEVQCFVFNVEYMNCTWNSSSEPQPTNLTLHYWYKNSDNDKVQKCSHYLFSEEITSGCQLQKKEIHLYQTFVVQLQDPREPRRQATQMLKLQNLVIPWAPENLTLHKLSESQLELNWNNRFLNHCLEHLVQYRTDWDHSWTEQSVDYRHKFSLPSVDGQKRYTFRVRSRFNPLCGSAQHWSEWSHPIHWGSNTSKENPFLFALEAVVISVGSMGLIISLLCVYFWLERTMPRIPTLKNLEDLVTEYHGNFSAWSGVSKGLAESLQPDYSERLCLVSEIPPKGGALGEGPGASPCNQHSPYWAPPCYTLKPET

T2: IL-2 receptor of the human CD4 positive T cell clone 3F8 (expresses CD25 and CD122) (human, UniProt P01589 22-272; P14784 27-551)
T2 sequence 1: T1 sequence 1
T2 sequence 2: T1 sequence 2

B1: hIL2 mutein REK (L18R, Q22E, Q126K) (ligand)
chain: APTSSSTKKTQLQLEHLRLDLEMILNGINNYKNPKLTRMLTFKFYMPKKATELKHLQCLEEELKPLEEVLNLAQSKNFHLRPRDLISNINVIVLELKGSETTFMCEYADETATIVEFLNRWITFCKSIISTLT
B2: hIL2 mutein REE (L18R, Q22E, Q126E) (ligand)
chain: B1 chain with K126E
B3: STK-012 (N-terminally 40 kD PEGylated des-Ala1 REK hIL2 mutein, STK-011) (ligand)
chain: PTSSSTKKTQLQLEHLRLDLEMILNGINNYKNPKLTRMLTFKFYMPKKATELKHLQCLEEELKPLEEVLNLAQSKNFHLRPRDLISNINVIVLELKGSETTFMCEYADETATIVEFLNRWITFCKSIISTLT
modifications: N-terminal proline conjugated to a 40 kd (20 kD x 2 arm) branched PEG moiety via a linker
B4: hIL2 mutein REF (L18R, Q22E, Q126F) (ligand)
chain: B1 chain with K126F
B5: hIL2 mutein REN (L18R, Q22E, Q126N) (ligand)
chain: B1 chain with K126N
B6: hIL2 mutein REY (L18R, Q22E, Q126Y) (ligand)
chain: B1 chain with K126Y
B7: hIL2 mutein RER (L18R, Q22E, Q126R) (ligand)
chain: B1 chain with K126R
B8: hIL2 mutein IEK (L18I, Q22E, Q126K) (ligand)
chain: B1 chain with R18I
B9: hIL2 mutein HEK (L18H, Q22E, Q126K) (ligand)
chain: B1 chain with R18H
B10: hIL2 mutein VEK (L18V, Q22E, Q126K) (ligand)
chain: B1 chain with R18V
B11: hIL2 mutein REM (L18R, Q22E, Q126M) (ligand)
chain: B1 chain with K126M
B12: hIL2 mutein EEK (L18E, Q22E, Q126K) (ligand)
chain: B1 chain with R18E
B13: hIL2 mutein AEK (L18A, Q22E, Q126K) (ligand)
chain: B1 chain with R18A
B14: hIL2 mutein RTK (L18R, Q22T, Q126K) (ligand)
chain: B1 chain with E22T

molecular target: T1, human high affinity trimeric IL-2 …; test: cell-based or functional assay

| pSTAT5 ratio YT CD25/YT, dilution factor 2, upper table | pSTAT5 ratio YT CD25/YT, dilution factor 4, upper table | pSTAT5 ratio YT CD25/YT, dilution factor 8, upper table | pSTAT5 ratio YT CD25/YT, dilution factor 16, upper table | pSTAT5 ratio YT CD25/YT, dilution factor 32, upper table | pSTAT5 ratio YT CD25/YT, dilution factor 64, upper table | pSTAT5 ratio YT CD25/YT, dilution factor 128, upper table | Binder |
| --- | --- | --- | --- | --- | --- | --- | --- |
| 1.1 | 1.6 | 2.6 | 4.8 | 7.7 | 11.8 | 13.1 | B1 |
| 1.4 | 2.9 | 5.9 | 10.1 | 13.5 | 15.3 | 16.8 | B2 |

molecular target: T1, human high affinity trimeric IL-2 …; test: cell-based or functional assay; remark: another data set of the same source

| EC50 (read off the curve) [pM] | Binder |
| --- | --- |
| ~8 | B3 |

molecular target: T2, IL-2 receptor of the human CD4 positive …; test: cell-based or functional assay

| IFNγ Production IC50 (pM), 3F8 cells [pM] | Proliferation IC50 (pM), 3F8 cells [pM] | Binder |
| --- | --- | --- |
| 38.3 | 37.6 | B4 |
| 15.7 | 13.7 | B5 |
| 22.1 | 19.3 | B6 |
| 13.1 | 13.1 | B7 |
| 8.8 | 10 | B8 |
| 17.7 | 14.2 | B1 |
| 30.4 | 20.9 | B9 |
| 4.6 | 15.5 | B10 |
| 18.4 | 33 | B2 |
| 12.7 | 32.6 | B11 |
| 58.7 | 36 | B12 |
| 19 | 13.7 | B13 |
|  | 62.8 | B14 |
